The results in this text go back to paper doi:10.1101/702415 (bioRxiv, 2019).

The test addresses T1, Ups1 (S. cerevisiae, UniProt Q05776 1-175).
T1 sequence: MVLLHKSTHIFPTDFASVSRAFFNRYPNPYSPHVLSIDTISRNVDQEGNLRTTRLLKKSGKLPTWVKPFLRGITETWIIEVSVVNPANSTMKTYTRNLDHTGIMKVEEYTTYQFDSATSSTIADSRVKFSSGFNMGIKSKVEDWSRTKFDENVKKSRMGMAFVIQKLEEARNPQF
As to the kind of experiment: crystal structure.

B1: Mdm35 (natural protein)
chain: MGNIMSASFAPECTDLKTKYDSCFNEWYSEKFLKGKSVENECSKQWYAYTTCVNAALVKQGIKPALDEAREEAPFENGGKLKEVDK
B1: the binding result is on record as “binds”.
